The target in experiment [1] is T1, Prostate-specific membrane antigen (PSMA) (human, UniProt Q04609 1-750).
T1 construct: whole, on cells; Never tested as an isolated protein against single peptides; also called NAAG peptidase; glutamate carboxypeptidase II (GCPII)
As to the kind of experiment: competitive inhibition on LNCaP cells, peptide pre-incubation at 100 uM then phage, phage titering.
Method: Competitive inhibition assay. Competitive binding inhibition between selected phages and their encoded peptides was examined in this study. […] The bound phages were recovered and titered as described above.
It was first evaluated whether these phages bind to LNCaP cells via specific interaction with their encoding peptides. LNCaP cells were pre-incubated with the encoding peptides, followed by washing and incubation with the corresponding phages. The bound phages were then eluted and titered.

For experiment [2], the target named is T1, Prostate-specific membrane antigen …. The experiment can be described thus: apparent Kd, flow cytometry, FAM-labeled peptide on PSMA-positive LNCaP cells, 4 C, one-site fit. On the technique in general: In flow cytometry, cells or beads pass a laser one at a time.
From the text: Flow cytometry analysis. Cells were detached using non-enzymatic cell dissociation solution and suspended in PBS (pH=7.4) at a concentration of 1×10⁶ cells/mL. […] The cells were then washed with PBS for three times and subjected to fluorescence analysis on a FACSCalibur flow cytometer (BD Biosciences, Franklin Lakes, N.J.).
Apparent equilibrium dissociation constant (Kd) of the peptides. […] Flow cytometry was employed to determine the percentage of cells that were labeled with the peptides. The apparent Kd values were calculated by fitting to a one-site specific binding model using GraphPad Prism 5.
For experiment [3] the target is unchanged. The experiment can be described thus: apparent Kd by flow cytometry on C4-2 cells; weaker than GTI.

Our source for the binding result and Kd values is patent US20170240596A1 (CURATORS OF THE UNIVERSITY OF MISSOURI, published 2017).

No end group written: not given here.

T1 sequence (Q04609 whole entry): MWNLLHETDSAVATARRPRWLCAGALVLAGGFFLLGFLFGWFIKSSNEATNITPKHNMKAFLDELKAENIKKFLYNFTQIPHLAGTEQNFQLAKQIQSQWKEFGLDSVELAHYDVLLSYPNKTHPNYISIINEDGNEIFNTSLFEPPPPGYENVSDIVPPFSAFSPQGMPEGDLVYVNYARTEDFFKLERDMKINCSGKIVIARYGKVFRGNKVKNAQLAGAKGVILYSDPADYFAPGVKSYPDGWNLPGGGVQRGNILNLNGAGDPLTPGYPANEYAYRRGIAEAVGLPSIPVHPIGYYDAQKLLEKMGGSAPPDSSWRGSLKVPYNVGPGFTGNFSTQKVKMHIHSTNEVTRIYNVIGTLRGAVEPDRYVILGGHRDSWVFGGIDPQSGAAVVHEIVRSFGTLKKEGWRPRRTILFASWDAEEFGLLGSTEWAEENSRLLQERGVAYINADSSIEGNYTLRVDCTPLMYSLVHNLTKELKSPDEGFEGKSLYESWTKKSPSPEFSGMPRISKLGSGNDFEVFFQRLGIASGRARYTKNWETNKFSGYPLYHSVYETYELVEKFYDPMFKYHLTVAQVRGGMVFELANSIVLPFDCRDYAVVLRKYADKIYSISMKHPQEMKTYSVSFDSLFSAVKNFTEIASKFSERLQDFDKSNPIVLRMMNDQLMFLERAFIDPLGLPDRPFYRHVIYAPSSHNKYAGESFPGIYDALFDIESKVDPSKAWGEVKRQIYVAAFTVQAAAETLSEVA

With YVNSHSILGYTG [YVN synthetic peptide YVNSHSILGYTG], the binding result in experiment [1] is reported as “binds”.
For HSDNHYRPADKL (also: FAM label, position not given here) [FAM-labeled HSD peptide HSDNHYRPADKL], the Kd in experiment [2] is 12.8 µM.
TGHLYPTRMEIQ (also: FAM label, position not given here) [FAM-labeled TGH peptide TGHLYPTRMEIQ]: the Kd in experiment [2] was 8.01 µM.

B1: FAM-labeled scrambled GTI peptide SGYQTFYWPGPI (peptide)
peptide: SGYQTFYWPGPI
modifications: also: FAM label, position not given here
notes: Random permutation of the GTI peptide; also called scrambled peptide; scrambled control
B1: in experiment [3], the binding result is given as “binds”.
For the molecule YVNSHSILGYTG (also: FAM label, position not given here) [FAM-labeled YVN peptide YVNSHSILGYTG], the Kd in experiment [2] was found to be 9.34 µM.
As for TGHLYPTRMEIQ [TGH synthetic peptide TGHLYPTRMEIQ], the binding result in experiment [1] is on record as “binds”.
